Experiments:
[1] = target: FLAG-tag marker (Alpha Diagnostic Cat # FLAG15-R); assay: ELISA, 25% human serum in KRB, pH 7.4
[2] = target: FLAG-tag marker (Alpha Diagnostic Cat # FLAG15-R); assay: ELISA, 25% human serum in KRB, pH 6.0
[3] = target: Myc-tag marker (Alpha Diagnostic Cat # Myc15-R); assay: ELISA, 25% human serum in KRB, pH 7.4
[4] = target: Multifusion-tagged marker (Alpha Diagnostic Cat # MFPM20-C); assay: ELISA, 25% human serum in KRB, pH 7.4
[5] = target: Myc-tag marker (Alpha Diagnostic Cat # Myc15-R); assay: ELISA, 25% human serum in KRB, pH 6.0

Substance	Kd [1]	Kd [2]	Kd [3]	Kd [4]	Kd [5]
anti-FLAG antibody (Abcam, ab1238)	0.224 mg/L	0.135 mg/L	–	–	–
anti-myc antibody (Abcam, #ab1326)	–	–	0.00798 mg/L	0.02 mg/L	0.00773 mg/L
